PMC9965858

Assays:
[1] = biological target: recombinant DENV2-NS1^V5-tag (Dengue virus type 2) (UniProt P14340); test: SDS-PAGE of samples heated or not heated, then Western blot
[2] = biological target: Dengue virus type 2 non-structural protein 1 (NS1) produced by DENV2-infected A549 cells (Dengue virus type 2) (UniProt P14340); test: as above

Row | Substance | stoichiometry N [1] | stoichiometry N [2]
1 | recombinant DENV2-NS1^V5-tag (from UniProt P14340 776-1127) (natural protein) | 2 | –
2 | Dengue virus type 2 non-structural protein 1 (NS1) produced by DENV2-infected A549 cells (from UniProt P14340) (natural protein) | – | 2
